{"source": "paper PMC4990751", "about": "(Molecules and Cells, 2016)", "proteins": {"B1": {"name": "T105C-PaAhpC (enzyme, Pseudomonas aeruginosa PAO1, UniProt Q9I6Z3 1-187, looked up)", "chain": "MSLINTQVQPFKVNAFHNGKFIEVTEESLKGKWSVLIFMPAAFTFNCPTEIEDAANNYGEFQKAGAEVYIVTTDTHFSHKVWHETSPAVGKAQFPLIGDPTHQLCNAFGVHIPEEGLALRGTFVINPEGVIKTVEIHSNEIARDVGETVRKLKAAQYTAAHPGEVCPAKWKEGEKTLAPSLDLVGKI"}}, "biological_target": "the molecule itself", "assay": "SEC", "data": [{"protein": "B1", "values": [{"measurement": "stoichiometry N", "result": 10}]}]}
